Among the data in the RNAGym collection of RNA variant scans (doi:10.1093/molbev/msab373) are reverse-splicing fitness values, retold here.

Sequences and labels used below:
B1: Azoarcus group I ribozyme (parent)
chain: GUGCCUUGCGCCGGGAAACCACGCAAGGGAUGGUGUCAAAUUCGGCGAAACCUAAGCGCCCGCCCGGGCGUAUGGCAACGCCGAGCCAAGCUUCGGCGCCUGCGCCGAUGAAGGUGUAGAGACUAGACGGCACCCACCUAAGGCAAACGCUAUGGUGAAGGCAUAGUCCAGGGAGUGGCGAAAGUCACACAAACCGG

In the series the parent is B1. The series is described as follows: reverse-splicing fitness (ratio to wild type); higher = more active; in vitro selection; Mg2+ level not given. The method in brief:
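An in vitro group I ribozyme library with randomized positions was T7-transcribed and gel-purified. In triplicate, 10 pmol RNA in EPPS pH 7.5 was reacted with 50 pmoles of a 30-nt RNA substrate for 1 h at 37 °C across several added MgCl2 levels (1–48 mM), then stopped with EDTA. Products were reverse transcribed from a substrate-complementary primer, PCR-amplified and sequenced (HiSeq 4000). Fitness is a variant's read proportion after selection over that before, normalised to wild type.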
As to C82A A111C A120U A145C C150G C169A U176A, the reverse-splicing fitness turned out to be 0.00353.
The figure for C82A A111C A120U A145C C150U C169G U176A is 0.00406; for C82A A111C A120U A145C C150U C169G U176G it is 0.00286; for C82A A111C A120U A145C C150U C169G U176C it is 0.00264.
The figure for C82A A111C A120U C150G C169A U176A is 0.00579.
For C82A A111C A120U C150G C169A U176C the value was 0.00597; for C82A A111C A120U C150G C169A U176G, 0.00319.
With C82A A111C A120U A145G C150G C169U, the reverse-splicing fitness was 0.00759.
The figure for C82A A111C A120U A145G C150G C169A is 0.00782; for C82A A111C A120U A145G C150G C169G it is 0.00663; for C82A A111C A120U A145C U176A it is 0.00599.
For C82A A111C A120U A145C U176C the value was 0.00818.
On to C82A A111C A120U A145C U176G, for which the reverse-splicing fitness is 0.00266.
As to C82A A111C A120U A145G U176A, the reverse-splicing fitness was determined as 0.00698.
For C82A A111C A120U A145G U176C the value was 0.0109; for C82A A111C A120U A145G U176G, 0.0035; for C82A A111C A120U A145C C150U C169U U176G, 0.00284.
The figure for C82A A111C A120U A145C C150U C169U U176A is 0.00329; for C82A A111C A120U A145C C150U C169U U176C it is 0.00286.
Regarding C82A A111C A120U A145C C169A U176A, the reverse-splicing fitness came out at 0.00272.
For C82A A111C A120U A145C C169A U176C the value was 0.00295; for C82A A111C A120U A145C C169A U176G, 0.00214; for C82A A111C A120U A145U C169A U176G, 0.00264.
As for C82A A111C A120U A145U C169A U176A, the reverse-splicing fitness turned out to be 0.00312.
C82A A111C A120U A145U C169A U176C: the reverse-splicing fitness worked out at 0.00315.
For C82A A111C A120G A145U C169U U176C the value was 0.0118.
The figure for C82A A111C A120G A145U C169U U176G is 0.00449; for C82A A111C A120G A145U C169U U176A it is 0.0132.
For C82A A111C A120U A145G C150A C169G U176A the value was 0.00687; for C82A A111C A120U A145G C150A C169G U176G, 0.00261.
For the variant C82A A111C A120U A145G C150A C169G U176C, the reverse-splicing fitness amounted to 0.00514.
For C82A A111C A120G A145U C169A U176A the value was 0.00852; for C82A A111C A120G A145U C169A U176G, 0.00466; for C82A A111C A120G A145U C169A U176C, 0.0104.
For C82A A111C A120U A145U C150G U176A the value was 0.00392.
In the case of C82A A111C A120U A145U C150G U176G, the reverse-splicing fitness was determined as 0.00259.
C82A A111C A120U A145U C150G U176C: the reverse-splicing fitness came to 0.00511.
As for C82A A111C A120U A145C C150U U176A, the reverse-splicing fitness is 0.00424.
For C82A A111C A120U A145C C150U U176G the value was 0.0028.
The figure for C82A A111C A120U A145C C150U U176C is 0.00525.
The figure for C82A A111C A120U A145U C169U is 0.00402; for C82A A111C A120U A145U C169A it is 0.00297.
On to C82A A111C A120U A145U C169G, for which the reverse-splicing fitness is 0.00439.
The figure for C82A A111C A120G C169U U176A is 0.0144; for C82A A111C A120G C169U U176C it is 0.0145; for C82A A111C A120G C169U U176G it is 0.00559.
The figure for C82A A111C A120U A145G C150G C169A U176C is 0.0094; for C82A A111C A120U A145G C150G C169A U176A it is 0.0122.
On to C82A A111C A120U A145G C150G C169A U176G, for which the reverse-splicing fitness turned out to be 0.00541.
For C82A A111C A120G C150G C169U U176C the value was 0.012; for C82A A111C A120G C150G C169U U176G, 0.00579.
The figure for C82A A111C A120G C150G C169U U176A is 0.00801; for C82A A111C A120U A145G C150U C169A U176A it is 0.00915.
The figure for C82A A111C A120U A145G C150U C169A U176G is 0.00324; for C82A A111C A120U A145G C150U C169A U176C it is 0.00432; for C82A A111C A120G A145U C150U U176G it is 0.00527.
Regarding C82A A111C A120G A145U C150U U176A, the reverse-splicing fitness amounted to 0.0121.
For C82A A111C A120G A145U C150U U176C the value was 0.0188; for C82A A111C A120U A145G C150A C169U U176A, 0.00642.
For C82A A111C A120U A145G C150A C169U U176G the value was 0.00328; for C82A A111C A120U A145G C150A C169U U176C, 0.00488.
For C82A A111C A120G A145U C169G the value was 0.00868.
For the variant C82A A111C A120G A145U C169A, the reverse-splicing fitness was found to be 0.00893.
As to C82A A111C A120G A145U C169U, the reverse-splicing fitness turned out to be 0.00891.
The figure for C82A A111C A120U A145U C150A C169G U176G is 0.00247; for C82A A111C A120U A145U C150A C169G U176A it is 0.003; for C82A A111C A120U A145U C150A C169G U176C it is 0.00377.
The figure for C82A A111C A120U A145C C150U is 0.00922; for C82A A111C A120U A145C C150A it is 0.00399.
Take C82A A111C A120U A145C C150G: the reverse-splicing fitness is 0.00708.
The figure for C82A A111C A120U A145U C150G C169G U176G is 0.00306; for C82A A111C A120U A145U C150G C169G U176A it is 0.00314.
The figure for C82A A111C A120U A145U C150G C169G U176C is 0.00299.
As for C82A A111C A120U A145U C150G C169U U176C, the reverse-splicing fitness was determined as 0.00305.
Consider C82A A111C A120U A145U C150G C169U U176G, for which the reverse-splicing fitness amounted to 0.0029.
The figure for C82A A111C A120U A145U C150G C169U U176A is 0.0031.
For the variant C82A A111C A120G A145U C150U C169U U176C, the reverse-splicing fitness stood at 0.012.
For C82A A111C A120G A145U C150U C169U U176A the value was 0.0153; for C82A A111C A120G A145U C150U C169U U176G, 0.00648.
For C82A A111C A120U A145G C169A the value was 0.00372; for C82A A111C A120U A145G C169G, 0.00415; for C82A A111C A120U A145G C169U, 0.00493.
Regarding C82A A111C A120U C169A, the reverse-splicing fitness stood at 0.0037.
